The text below walks through data of the MegaScale stability set (Tsuboyama et al. 2023).

The labels stand for the following.
B1: r11_951_TrROS_Hall (parent)
chain: KKKYVIKVYFEDTGKEVEIEAESKEEALEAAKRLAEELGLKIKKVEIYP

Variants of B1 are the subject of the data set. Put plainly: folding stability dG (cDNA display proteolysis); higher = more stable. The settings on record: PBS, room temperature.
For the variant KKKYVIQVYFEDTGKEVEIEAESKEEALEAAKRLAEELGLKIKKVEIYP [K7Q], the “folding stability dG” value stood at 15.7 kJ/mol.

Turning to KKKYVIHVYFEDTGKEVEIEAESKEEALEAAKRLAEELGLKIKKVEIYP [K7H], the “folding stability dG” value was 17.5 kJ/mol.

With KKKYVIAVYFEDTGKEVEIEAESKEEALEAAKRLAEELGLKIKKVEIYP [K7A], the “folding stability dG” value was found to be 16.5 kJ/mol.

In the case of KKKYVIVVYFEDTGKEVEIEAESKEEALEAAKRLAEELGLKIKKVEIYP [K7V], the “folding stability dG” value amounted to 17.1 kJ/mol.

KKKYVIKHYFEDTGKEVEIEAESKEEALEAAKRLAEELGLKIKKVEIYP [V8H]: the “folding stability dG” value turned out to be 5.78 kJ/mol.

In the case of KKKYVIKCYFEDTGKEVEIEAESKEEALEAAKRLAEELGLKIKKVEIYP [V8C], the “folding stability dG” value was 16.4 kJ/mol.

In the case of KKKYVIKIYFEDTGKEVEIEAESKEEALEAAKRLAEELGLKIKKVEIYP [V8I], the “folding stability dG” value came out at 18.7 kJ/mol.

With KKKYVIKLYFEDTGKEVEIEAESKEEALEAAKRLAEELGLKIKKVEIYP [V8L], the “folding stability dG” value came out at 17.8 kJ/mol.

For the variant KKKYVIKKYFEDTGKEVEIEAESKEEALEAAKRLAEELGLKIKKVEIYP [V8K], the “folding stability dG” value came to 0.669 kJ/mol.

In the case of KKKYVIKEYFEDTGKEVEIEAESKEEALEAAKRLAEELGLKIKKVEIYP [V8E], the “folding stability dG” value came to 4.09 kJ/mol.

In the case of KKKYVIKFYFEDTGKEVEIEAESKEEALEAAKRLAEELGLKIKKVEIYP [V8F], the “folding stability dG” value turned out to be 19.3 kJ/mol.

Turning to KKKYVIKAYFEDTGKEVEIEAESKEEALEAAKRLAEELGLKIKKVEIYP [V8A], the “folding stability dG” value came out at 15 kJ/mol.

Regarding KKKYVIKGYFEDTGKEVEIEAESKEEALEAAKRLAEELGLKIKKVEIYP [V8G], the “folding stability dG” value was 10.5 kJ/mol.

Consider KKKYVIKDYFEDTGKEVEIEAESKEEALEAAKRLAEELGLKIKKVEIYP [V8D], for which the “folding stability dG” value was 5.27 kJ/mol.

For the variant KKKYVIKMYFEDTGKEVEIEAESKEEALEAAKRLAEELGLKIKKVEIYP [V8M], the “folding stability dG” value was 17.9 kJ/mol.

As to KKKFVIKVYFEDTGKEVEIEAESKEEALEAAKRLAEELGLKIKKVEIYP [Y4F], the “folding stability dG” value came to 17.6 kJ/mol.

As for KKKKVIKVYFEDTGKEVEIEAESKEEALEAAKRLAEELGLKIKKVEIYP [Y4K], the “folding stability dG” value is 12.1 kJ/mol.

Consider KKKHVIKVYFEDTGKEVEIEAESKEEALEAAKRLAEELGLKIKKVEIYP [Y4H], for which the “folding stability dG” value stood at 15 kJ/mol.

KKKMVIKVYFEDTGKEVEIEAESKEEALEAAKRLAEELGLKIKKVEIYP [Y4M]: the “folding stability dG” value was 16.6 kJ/mol.

Consider KKKPVIKVYFEDTGKEVEIEAESKEEALEAAKRLAEELGLKIKKVEIYP [Y4P], for which the “folding stability dG” value was 10.2 kJ/mol.

In the case of KKKIVIKVYFEDTGKEVEIEAESKEEALEAAKRLAEELGLKIKKVEIYP [Y4I], the “folding stability dG” value is 17.9 kJ/mol.

With KKKEVIKVYFEDTGKEVEIEAESKEEALEAAKRLAEELGLKIKKVEIYP [Y4E], the “folding stability dG” value was found to be 11.4 kJ/mol.

Turning to KKKGVIKVYFEDTGKEVEIEAESKEEALEAAKRLAEELGLKIKKVEIYP [Y4G], the “folding stability dG” value was determined as 10.4 kJ/mol.

On to KKKRVIKVYFEDTGKEVEIEAESKEEALEAAKRLAEELGLKIKKVEIYP [Y4R], for which the “folding stability dG” value was determined as 12.5 kJ/mol.

In the case of KKKTVIKVYFEDTGKEVEIEAESKEEALEAAKRLAEELGLKIKKVEIYP [Y4T], the “folding stability dG” value was determined as 15.6 kJ/mol.

As to KKKWVIKVYFEDTGKEVEIEAESKEEALEAAKRLAEELGLKIKKVEIYP [Y4W], the “folding stability dG” value turned out to be 18 kJ/mol.

As for KKKVVIKVYFEDTGKEVEIEAESKEEALEAAKRLAEELGLKIKKVEIYP [Y4V], the “folding stability dG” value worked out at 19.1 kJ/mol.

As to KKKCVIKVYFEDTGKEVEIEAESKEEALEAAKRLAEELGLKIKKVEIYP [Y4C], the “folding stability dG” value was 16.1 kJ/mol.

KKKAVIKVYFEDTGKEVEIEAESKEEALEAAKRLAEELGLKIKKVEIYP [Y4A]: the “folding stability dG” value stood at 12.9 kJ/mol.

As to KKKNVIKVYFEDTGKEVEIEAESKEEALEAAKRLAEELGLKIKKVEIYP [Y4N], the “folding stability dG” value came to 12.2 kJ/mol.

Regarding KKKSVIKVYFEDTGKEVEIEAESKEEALEAAKRLAEELGLKIKKVEIYP [Y4S], the “folding stability dG” value was found to be 14.1 kJ/mol.

Regarding KKKDVIKVYFEDTGKEVEIEAESKEEALEAAKRLAEELGLKIKKVEIYP [Y4D], the “folding stability dG” value came to 9.73 kJ/mol.

In the case of KKKQVIKVYFEDTGKEVEIEAESKEEALEAAKRLAEELGLKIKKVEIYP [Y4Q], the “folding stability dG” value was determined as 14.9 kJ/mol.

As to KKKLVIKVYFEDTGKEVEIEAESKEEALEAAKRLAEELGLKIKKVEIYP [Y4L], the “folding stability dG” value came out at 16.4 kJ/mol.

Regarding KKTYVIKVYFEDTGKEVEIEAESKEEALEAAKRLAEELGLKIKKVEIYP [K3T], the “folding stability dG” value was found to be 18.4 kJ/mol.

On to KKEYVIKVYFEDTGKEVEIEAESKEEALEAAKRLAEELGLKIKKVEIYP [K3E], for which the “folding stability dG” value came to 16.3 kJ/mol.

Turning to KKFYVIKVYFEDTGKEVEIEAESKEEALEAAKRLAEELGLKIKKVEIYP [K3F], the “folding stability dG” value is 19.4 kJ/mol.

As for KKAYVIKVYFEDTGKEVEIEAESKEEALEAAKRLAEELGLKIKKVEIYP [K3A], the “folding stability dG” value turned out to be 18.7 kJ/mol.

For KKWYVIKVYFEDTGKEVEIEAESKEEALEAAKRLAEELGLKIKKVEIYP [K3W], the “folding stability dG” value worked out at 20.2 kJ/mol.

Consider KKQYVIKVYFEDTGKEVEIEAESKEEALEAAKRLAEELGLKIKKVEIYP [K3Q], for which the “folding stability dG” value stood at 17.9 kJ/mol.

As to KKVYVIKVYFEDTGKEVEIEAESKEEALEAAKRLAEELGLKIKKVEIYP [K3V], the “folding stability dG” value came out at 17.7 kJ/mol.

Take KKSYVIKVYFEDTGKEVEIEAESKEEALEAAKRLAEELGLKIKKVEIYP [K3S]: the “folding stability dG” value stood at 18.9 kJ/mol.

For the variant KKIYVIKVYFEDTGKEVEIEAESKEEALEAAKRLAEELGLKIKKVEIYP [K3I], the “folding stability dG” value is 17.9 kJ/mol.

Turning to KKLYVIKVYFEDTGKEVEIEAESKEEALEAAKRLAEELGLKIKKVEIYP [K3L], the “folding stability dG” value came to 19.4 kJ/mol.

KKYYVIKVYFEDTGKEVEIEAESKEEALEAAKRLAEELGLKIKKVEIYP [K3Y]: the “folding stability dG” value is 19 kJ/mol.

As for KKCYVIKVYFEDTGKEVEIEAESKEEALEAAKRLAEELGLKIKKVEIYP [K3C], the “folding stability dG” value worked out at 17.7 kJ/mol.

Consider KKMYVIKVYFEDTGKEVEIEAESKEEALEAAKRLAEELGLKIKKVEIYP [K3M], for which the “folding stability dG” value was 19.2 kJ/mol.

In the case of KKNYVIKVYFEDTGKEVEIEAESKEEALEAAKRLAEELGLKIKKVEIYP [K3N], the “folding stability dG” value was determined as 17.2 kJ/mol.

Consider KKGYVIKVYFEDTGKEVEIEAESKEEALEAAKRLAEELGLKIKKVEIYP [K3G], for which the “folding stability dG” value came out at 16.9 kJ/mol.

Turning to KKHYVIKVYFEDTGKEVEIEAESKEEALEAAKRLAEELGLKIKKVEIYP [K3H], the “folding stability dG” value worked out at 18.4 kJ/mol.

KKPYVIKVYFEDTGKEVEIEAESKEEALEAAKRLAEELGLKIKKVEIYP [K3P]: the “folding stability dG” value amounted to 18.8 kJ/mol.

KKRYVIKVYFEDTGKEVEIEAESKEEALEAAKRLAEELGLKIKKVEIYP [K3R]: the “folding stability dG” value was 17.8 kJ/mol.

For KKDYVIKVYFEDTGKEVEIEAESKEEALEAAKRLAEELGLKIKKVEIYP [K3D], the “folding stability dG” value is 16.2 kJ/mol.
